The data set is described as follows: yeast display, Sf9 membrane polyspecificity reagent, FACS + sequencing; frameworks hold sequencing errors. Summed up: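 After 36–48 hours of galactose induction, yeast (Saccharomyces cerevisiae BJ5465) displaying a synthetic nanobody library were stained at 4 °C for 1 hour with 10% biotinylated, detergent-solubilized Sf9 membrane reagent. Streptavidin microbeads enriched the stained cells before FACS sorting into low and high (top ~1%) gates on anti-HA and streptavidin fluorescence. Each clone's polyreactivity label reflects its gate of origin.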
With “QVQLEDSGGGLVQAGGSLRLSCAASGFNFYYNAMGWYRKAPGKERELVAAISWSDGGTYYADSVKGRFTISRDNAKNTVYLQMNSLKPEDTAFYYCAADFRLRAYYPGYEYWGQGTQVTVSS”, the “polyreactivity (PSR sort gate)” value is listed as “low polyreactivity”.

Turning to “QVQLEDSGGGLVQAGGSLRLSCAASGFTILRYAMGWYRQAPGKERELVAAIDWYGGSTYYADSVKGRFTISRDNAKNTVFVQMNSLKPEDCAVYYCNARKINFPSRFNDWGQGTQVTVSS”, the “polyreactivity (PSR sort gate)” value is reported as “low polyreactivity”.

With “QVQLEDSGGGLVQAGGSLRLSCAASGIIFPDYAMGWYRQAPGKQRELVADISFSAGSTYYADSVKGRFTISRDNAKNTVYLQMNSLKPEDTAVYYCNARPFLTVLYLFYGNNYDYWGQGTQVTVSS”, the “polyreactivity (PSR sort gate)” value is recorded as “low polyreactivity”.

Turning to “QVQLEDSGGGLVQAGGSLRLSCAASGRTSVGYVMGWYRQAPGKERELVAAISASGGSTYYADSVKGRFTISRDNAKNTVYLQMNSLKPEDTAVYYCNAPVYVPYDYWGQGTQVTVSS”, the “polyreactivity (PSR sort gate)” value is “low polyreactivity”.

For the sequence “QVQLEDSGGGLVQAGGSLRLSCAASGSTFDNYAMGWYRQAPGKERELVAVITQSGGITFYADSVKGRFTISRDNAKNTVYLQMNSVKPEDTAVYYCNVELDRSWYYYWGQGTQVTVSS”, the “polyreactivity (PSR sort gate)” value was “low polyreactivity”.

Consider “QVQLEDSGGGLVQAGGSLRLSSPASGRIFGWYAMGWYRQAPGKERELVATISYSGASTYYADSVKGRFTISRDNAKNTVYLQMNSLKPEDTAVYYCAAVYHKNGCGDYSWGQGTQVTVSS”, for which the “polyreactivity (PSR sort gate)” value is “high polyreactivity”.

As for “QVQLEESAGGLVQAGGSLRLICADSARILRQYARGWYRQAPGKERELVAAITSSGGSTYYADSVKGRFTISRDNEKNTVYLQMNSMKPEDTAVYYCNARLRGAKYDYWGQGTQVSVSS”, the “polyreactivity (PSR sort gate)” value is “high polyreactivity”.

In the case of “QVQLEESAGGLVQAGGSLRLSCAASGRIFNYYAMGWYRQAPGKERELVATISSTGSSTYYADSVKGRFTISRDNAKNTVYLQMNSLKPEDTAVYYCAARYVRQYYRAEDYWGQGTQVTVSS”, the “polyreactivity (PSR sort gate)” value is given as “high polyreactivity”.

As to “QVQLEESAGGLVQAGGSLRLSCAASGRSFNAYAMGWYRQAPGKERELVATISWRTGSTYYADSVKGRFTISRDNAKNTVYLQMNSLKPEDTAVYYCNAKVGSYGAQGYRFAYNYWGQGTQVTVSS”, the “polyreactivity (PSR sort gate)” value is “high polyreactivity”.

“QVQLEESGGCLVQAGGSLRLSCAASGFTFRGYAMGWYSQAPGKERELVAAISKRGGSTYYADSVKGRFTISRDNAKNTVYLLMNSLKPADTAVYYCNADYYIVGPPYSPTREDYWGQGTQVTVSS”: the “polyreactivity (PSR sort gate)” value was “high polyreactivity”.

Regarding “QVQLEESGGCLVQAGGSLRLSCAASGIIFWDNALGWYRQAPGKERELVASINYSGGSTYYADSVKGRFTNSRDNAKNTVYLQMNSLKPEDTAVYYCAARTVTLDDWDYAYDYWVQGTQVTVSS”, the “polyreactivity (PSR sort gate)” value was “low polyreactivity”.

Regarding “QVQLEESGGCLVQAGGSLRLSCAASGRIITSNDMGWYRQAPGKERELVAAISKSGGRTYYADSVKGRFTISRDNAKNTVYLQMNSLKPEDTAVYYCAKDNYWGQGTQVTVSS”, the “polyreactivity (PSR sort gate)” value is reported as “high polyreactivity”.

For “QVQLEESGGCLVQAGGSLRLSCAASGSIFRHNVMGWYRPAPGKERELVAAISGGGGRTYYADSVKGRFTISRDNAKNTVYLQMNSQKPEDTAVYYCNAVGPGLYQGDSTDSRYNYWGQGTQVTVSS”, the “polyreactivity (PSR sort gate)” value was “high polyreactivity”.

Take “QVQLEESGGCLVQAGGSLRLSCAASGSIFRIYAMGWYRQAPGKEREFVAAISSRGGRTYYAYSVKGRFTISRDNAKNTVYLQMNSLKPEDTAVYYCNARATRGSYYEYEYWGQGTQVTVSS”: the “polyreactivity (PSR sort gate)” value is recorded as “high polyreactivity”.

Take “QVQLEESGGCLVQAGGSLRLSCAASGSTFSNYAMGWYRLAPGKESELVAAISYSGARTDYADSVKGRFTISRDNAKHTVYFQMHSLKPEDTAVYYCAAQVLSRHANPYAYYYWGQGTQVTVSS”: the “polyreactivity (PSR sort gate)” value was “high polyreactivity”.

On to “QVQLEESGGCLVQAGGSLRLSCAATGITFYLYAMGWYRHAPGKERELVAAINSGGSTSYADSVKGRFTISRDNAKNTVYLQMNSLKTEDTADYYCNKLFLKFWGHQYGYWGQGTQVTVSS”, for which the “polyreactivity (PSR sort gate)” value is “high polyreactivity”.

For “QVQLEESGGGFVQAAGTLRLSCAPSGRIFLPYAMGWYRQAPGKEREFVAAITWGAGTTYYADSVKGRFTISRDNAKNTVYLQMNSLKPDDTAVYYCNARRRRAFSLYYYWGQGTQVTVSS”, the “polyreactivity (PSR sort gate)” value is recorded as “high polyreactivity”.

Consider “QVQLEESGGGFVQAGGCLRLSCAASGRIFYGYAMGWYRQAPGKERELVAAITRSSSTYYADSVKGRFTISRDNAKNTVYLQMNSQKPEDTAVYYCAAVMYATRPVYGFESWGLGTQVTVSS”, for which the “polyreactivity (PSR sort gate)” value is given as “high polyreactivity”.

On to “QVQLEESGGGIVQAGGSLRLSCAASGSNYASNAMGWYRQAPRKERELVAAINSGDSTNYADSVKGRFTISRDNGKNTVYLQMNSLKTEDTAVYYCSRGLEERYDYWGQGTQVTVSS”, for which the “polyreactivity (PSR sort gate)” value is recorded as “low polyreactivity”.

Consider “QVQLEESGGGIVQAGGSLRLSCAASGSTFGVYAMGWYRQAPGKERELVAAISSSTGSTYYADSVKGRFTISRDNAKNTVYLQMNSLKPEYTAVYYCAAAGYGKVRGDYWGQGTQVTVSS”, for which the “polyreactivity (PSR sort gate)” value is recorded as “low polyreactivity”.

Consider “QVQLEESGGGLDQAGGSLRLSCAASGNIFYGNAMGWYIQAAGKERALVARISGTGRTNYADSVKGRFTISRDNAKNTVYLQMNSLKPEDTAVYYCAKYGYRSRYGYDYWGQGTQVTVTS”, for which the “polyreactivity (PSR sort gate)” value is on record as “high polyreactivity”.

As to “QVQLEESGGGLVHAGGSLPLSCAASGGTFYKYAMGSYRQAPGKERELVARISRCGSTYYADSVNGRFTISRDNAKNTVYLQMNSLKPEDTAVYYCAKRWFAGWPIVVPYNYWGQGTQVTVSS”, the “polyreactivity (PSR sort gate)” value is “high polyreactivity”.

Turning to “QVQLEESGGGLVHAGGSLRLSCAASGSTFGYYTMGWYRQAPRKERELVAAITWSGGSTYYADSVKGRFTISLDNAKNTVYLQMNSLKPEDSAVYYCAADDYWTPFGYWGQGTQVTVSS”, the “polyreactivity (PSR sort gate)” value was “low polyreactivity”.

In the case of “QVQLEESGGGLVLAGGSLRLSCAASGSTFYNYAKGCYREAPGKERELVAAITFTGGSTYYADSVKGRFTISRDNAKNTVYLQMNSLKPEDTAVYYCNRLGPLGDQQQYDYWGQGTQVTVSS”, the “polyreactivity (PSR sort gate)” value is given as “low polyreactivity”.

“QVQLEESGGGLVQAGDSLRLSCDASGSTFPGYAMGWYRPAPGKERELVAAIYKRGGSTRYADSVKGRFTISRDNAKNTVYLQMNSLKPEDTAVYYCAASYSYSGSGGGYWGQGTQVTVSS”: the “polyreactivity (PSR sort gate)” value was “high polyreactivity”.

As for “QVQLEESGGGLVQAGFSLRLSCAASGRIFVPNAMGWSRPAPGKEGELVAAIRWTGGSTYYADSVQGRFTISRDNAKNTVYLQMNSLKPEDTAVSYCAARYAARRLTYFWPQYARYDYWGQGTQVTVSS”, the “polyreactivity (PSR sort gate)” value is “high polyreactivity”.

In the case of “QVQLEESGGGLVQAGGILRLSCAASGSIFIPNAMGWYRQAPGKERELVAAIRSGGSTYYADSVKGRFTISRDNAKNTVYLQMNSLKPEDTAVYYCAADTYTYYYYLARYYYWGQGTQVTVSS”, the “polyreactivity (PSR sort gate)” value is “low polyreactivity”.

In the case of “QVQLEESGGGLVQAGGNLRLSSAASGSIFSFNAMGCYRQAPGKERELVAAISWRGASTYYADSVKGRFTISRDNAKNTVYLQMNSLKPEDTAVYYCAAESTFILQYSYIYYDGHYDYCGQGTQVTVSS”, the “polyreactivity (PSR sort gate)” value is listed as “low polyreactivity”.

Take “QVQLEESGGGLVQAGGRLRLSCAASGGTFRNNAMGWDRQAPGKEREVVAAISSSGTSTYYADSVKGRFTISRDNAKNTVYLQMNSLKPEDTAVYYCNADALGYPWWDHMDYWGQGTQVTVSS”: the “polyreactivity (PSR sort gate)” value is given as “low polyreactivity”.

As to “QVQLEESGGGLVQAGGRLRLSCAASGRTFGRYAMGWDREPPGKERELVAAIRSGGSTYYADSVKGRLTISRDNAKNTVYFQMNSVKQADTAVYYCAADIARHLTGFAYYGLDYWGQGTQVTVSS”, the “polyreactivity (PSR sort gate)” value is given as “low polyreactivity”.

Regarding “QVQLEESGGGLVQAGGRLRLSCAASGSIFDLNAMGRYRQAPGKERELVAAISQRGTRTYYADSVKGRFTISRDNAKNNVYLQMNSLIPEDTAVYYCAVGNGLSRYVYGDYEYWGQGTQVTVSS”, the “polyreactivity (PSR sort gate)” value is listed as “high polyreactivity”.

“QVQLEESGGGLVQAGGRLRLSCAASVSIFGVYTMGWYRPAPGKERELVAAIRGVGSTNYADSVKGRFTISRDNAKNTVYLQMKSLKTEDTAVYYCAARYAYGMWGQGTHVTVSS”: the “polyreactivity (PSR sort gate)” value is recorded as “low polyreactivity”.

Turning to “QVQLEESGGGLVQAGGSHRLSCAASGIIFSKYAMGWYRPAPGKEREFGAAISQRGGRTYYADSVKGRFTISRDNAKNTVYLQMNSLNTEDTAVYYCAATGTGGVYPLDYGGQGTQVTVSS”, the “polyreactivity (PSR sort gate)” value was “high polyreactivity”.

In the case of “QVQLEESGGGLVQAGGSHRLSCAASGSIFGGNAMGWYRQAPGKERELVAAITQSGGRTYYADSVKGRCTISRDTAKNTVYLQMNSLKPEDTAVYYCNRVYKSQTTDSYPLSYYYWGQGTQVTVSS”, the “polyreactivity (PSR sort gate)” value is “high polyreactivity”.

Consider “QVQLEESGGGLVQAGGSLRIICADSGINFRYNAMGLYRKAPGKERELVAGIRKRGGSTYYADSVKGRFTISRDNANNTVYLQMNSLKPEDTEVYYCAALCPTTGRNYHSTPYEYWGQGTQVTVSS”, for which the “polyreactivity (PSR sort gate)” value is “high polyreactivity”.

In the case of “QVQLEESGGGLVQAGGSLRISCAASGFTFKYYVMGWYRQAPGKERFVAAITGSGASTYYADSVKGRFTISRDNAKNTVYLQMNSLKPEDTAVYYCNAVYYAGRYRYDYWGQGTQVTVSS”, the “polyreactivity (PSR sort gate)” value was “high polyreactivity”.

For the sequence “QVQLEESGGGLVQAGGSLRISCAASVRTFKYYAMGWNRQAPGKETELVAAISWSGSSTSYADSVKGRFTISRDHAKNTVYLQMNSLKPEDTAVYYCAAATYRQFTGTYDYWGQGTQVTVSS”, the “polyreactivity (PSR sort gate)” value was “high polyreactivity”.

“QVQLEESGGGLVQAGGSLRLICPASGRTFIRKAMGRYRQAPGKERELVASIRWSGGSTYYADSVKGRFTISRDNAKNTVYLQMNSLKTEDTAVYYCAASRWRPLERGTTWLHDYWGQGSQVTVSS”: the “polyreactivity (PSR sort gate)” value was “low polyreactivity”.

For the sequence “QVQLEESGGGLVQAGGSLRLSCAASARTIFGYAMGWYRQAPGKERELVAAINWGGASTYYADSVKGRFTISRDNAKNTVYLQMNSLKPEDTAVYYCAADSVPSRPTYGRYDYWGQGTQVTVSS”, the “polyreactivity (PSR sort gate)” value is on record as “low polyreactivity”.

In the case of “QVQLEESGGGLVQAGGSLRLSCAASGAIFYAYAMGCYRQATGKEREFVAAITRRGGNTYYADSVKGRFTISRDNAKNTVYVQMNSLKPEDTEVYYSAADAGGGTFDYWGHGTQVTVSS”, the “polyreactivity (PSR sort gate)” value is on record as “low polyreactivity”.
